Values quoted from earlier work, collected in PMC4712107.
Read-outs that look alike come from different tables or passages of the source.

Assays:
[1] = molecular target: CRF-BP (Homo sapiens) (UniProt P24387)
[2] = molecular target: CRF-BP (Homo sapiens) (UniProt P24387); remark: listed apart in the source

Sequence of UniProt P24387 (P24387 25-322): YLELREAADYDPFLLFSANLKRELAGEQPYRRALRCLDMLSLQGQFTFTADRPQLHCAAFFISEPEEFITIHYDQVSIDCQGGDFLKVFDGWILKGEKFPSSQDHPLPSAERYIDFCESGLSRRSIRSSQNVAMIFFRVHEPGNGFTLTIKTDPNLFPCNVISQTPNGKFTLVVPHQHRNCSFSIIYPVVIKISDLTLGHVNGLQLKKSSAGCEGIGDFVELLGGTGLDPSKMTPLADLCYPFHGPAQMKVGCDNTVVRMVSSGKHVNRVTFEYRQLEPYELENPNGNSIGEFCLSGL

Kd [1] | Kd [2] | Substance
< 1 nM |  | CRF (from UniProt P06850)
 | < 1 nM | Urocortin 1 (from UniProt P55089)
